Patent US20090285813A1 (MMRGLOBAL, published 2009)

Experiments:
human CD20 [1] = molecular target: T1, human CD20 (human, UniProt P11836 1-297); assay: anti-CD20 cellular ELISA, supernatant; rank 1 of 29
T1 construct: whole, on cells; Target always presented on cells; also called CD20 antigen
T1 sequence (looked up): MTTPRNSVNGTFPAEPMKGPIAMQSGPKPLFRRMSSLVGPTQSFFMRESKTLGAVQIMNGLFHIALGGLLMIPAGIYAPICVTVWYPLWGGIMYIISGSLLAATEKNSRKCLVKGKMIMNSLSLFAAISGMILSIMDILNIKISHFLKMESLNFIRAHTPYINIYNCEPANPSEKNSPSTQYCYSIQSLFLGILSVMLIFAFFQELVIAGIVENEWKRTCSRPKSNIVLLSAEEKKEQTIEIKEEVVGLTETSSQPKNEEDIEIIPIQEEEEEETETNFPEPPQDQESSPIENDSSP

human CD20 [2] = molecular target: T1, human CD20; assay: anti-CD20 cellular ELISA, supernatant; rank 3 of 29
human CD20 [3] = molecular target: T1, human CD20; assay: anti-CD20 cellular ELISA, supernatant; rank 7 of 29
human CD20 [4] = molecular target: T1, human CD20; assay: anti-CD20 cellular ELISA, supernatant; rank 4 of 29
human CD20 [5] = molecular target: T1, human CD20; assay: anti-CD20 cellular ELISA, supernatant; rank 8 of 29
human CD20 [6] = molecular target: T1, human CD20; assay: anti-CD20 cellular ELISA, supernatant; rank 2 of 29
human CD20 [7] = molecular target: T1, human CD20; assay: anti-CD20 cellular ELISA, supernatant; rank 6 of 29
human CD20 [8] = molecular target: T1, human CD20; assay: anti-CD20 cellular ELISA, supernatant; rank 5 of 29

B1: anti-CD20 HuFR variant 1 (light chain BD22084, heavy chain BD20332) (antibody, human IgG1, kappa, V domains shown)
VH: QVQLVQSGAEVKKPGASVKVSCKASGYTFTSYNMHWVRQAPGKGLEWVGAIYPGNGDTSYNQKFKGRVTISADKSISTAYLQWSSLKASDTAMYYCARSHYGSNYVDYFDYWGQGTLVTVSS
VL: DIVMTQSPLSLPVTPGEPASISCRASSSLSFMHWYQQKPGQPPKLLIYATSNLASGIPARFSGSGSGTDFTLTISSLEPEDFAVYYCHQWSSNPLTFGQGTKVEIKR
notes: Full-length IgG, unpurified HEK-293 supernatant; also called LC & HC combination 1
binding result (human CD20 [1]): binds

B2: anti-CD20 HuFR variant 3 (light chain BD22086, heavy chain BD20335) (antibody, human IgG1, kappa, V domains shown)
VH: QVQLVQSGAEVKKPGASVKVSCKASGYTFTSYNMHWVRQAPGKGLEWMGAIYPGNGDTSYNQKFKGRFTISRDNAKNSLYLQMNSLRAEDTAVYYCARSHYGSNYVDYFDYWGQGTLVTVSS
VL: DIVMTQSPLSLPVTPGEPASISCRASSSLSFMHWYQQKPGQAPRLLIYATSNLASGVPDRFSGSGSGTDFTLTISSLQAEDVAVYYCHQWSSNPLTFGQGTKVEIKR
notes: Full-length IgG, unpurified HEK-293 supernatant; also called LC & HC combination 3
binding result (human CD20 [2]): binds

B3: anti-CD20 HuFR variant 7 (light chain BD22090, heavy chain BD20337) (antibody, human IgG1, kappa, V domains shown)
VH: QVQLVQSGAEVKKPGASVKVSCKASGYTFTSYNMHWVRQAPGQGLEWMGAIYPGNGDTSYNQKFKGRVTISADKSISTAYLQWSSLKASDTAMYYCARSHYGSNYVDYFDYWGQGTLVTVSS
VL: DIVMTQSPLSLPVTPGEPASISCRASSSLSFMHWYLQKPGQSPQLLIYATSNLASGVPDRFSGSGSGTDFTLKISRVEAEDVGVYYCHQWSSNPLTFGQGTKVEIKR
notes: Full-length IgG, unpurified HEK-293 supernatant; also called LC & HC combination 7
binding result (human CD20 [3]): binds

B4: anti-CD20 HuFR variant 4 (light chain BD22088, heavy chain BD20337) (antibody, human IgG1, kappa)
heavy: not shown
light: DIVMTQSPLSLPVTPGEPASISCRASSSLSFMHWYQQKPGQPPKLLIYATSNLASGVPSRFSGSGSGTDFTFTISSLQPEDIATYYCHQWSSNPLTFGQGTKVEIKRTVAAPSVFIFPPSDEQLKSGTASVVCLLNNFYPREAKVQWKVDNALQSGNSQESVTEQDSKDSTYSLSSTLTLSKADYEKHKVYACEVTHQGLSSPVTKSFNRGEC
notes: Full-length IgG, unpurified HEK-293 supernatant; also called LC & HC combination 4
binding result (human CD20 [4]): binds

B5: anti-CD20 HuFR variant 8 (light chain BD22095, heavy chain BD20337) (antibody, human IgG1, kappa)
heavy: not shown
light: EIVMTQSPATLSVSPGERATLSCRASSSLSFMHWYQQKPGQPPKLLIYATSNLASGVPSRFSGSGSGTDFTFTISSLQPEDIATYYCHQWSSNPLTFGQGTKVEIKRTVAAPSVFIFPPSDEQLKSGTASVVCLLNNFYPREAKVQWKVDNALQSGNSQESVTEQDSKDSTYSLSSTLTLSKADYEKHKVYACEVTHQGLSSPVTKSFNRGEC
notes: Full-length IgG, unpurified HEK-293 supernatant; also called LC & HC combination 8
binding result (human CD20 [5]): binds

B6: anti-CD20 HuFR variant 2 (light chain BD22085, heavy chain BD20335) (antibody, human IgG1, kappa, V domains shown)
VH: QVQLVQSGAEVKKPGASVKVSCKASGYTFTSYNMHWVRQAPGKGLEWMGAIYPGNGDTSYNQKFKGRFTISRDNAKNSLYLQMNSLRAEDTAVYYCARSHYGSNYVDYFDYWGQGTLVTVSS
VL: DIVMTQSPDSLAVSLGERATINCRASSSLSFMHWYQQKPGQAPRLLIYATSNLASGVPSRFSGSGSGTDFTLTISSLQPEDFATYYCHQWSSNPLTFGQGTKVEIKR
notes: Full-length IgG, unpurified HEK-293 supernatant; also called LC & HC combination 2
binding result (human CD20 [6]): binds

B7: anti-CD20 HuFR variant 6 (light chain BD22089, heavy chain BD20335) (antibody, human IgG1, kappa, V domains shown)
VH: QVQLVQSGAEVKKPGASVKVSCKASGYTFTSYNMHWVRQAPGKGLEWMGAIYPGNGDTSYNQKFKGRFTISRDNAKNSLYLQMNSLRAEDTAVYYCARSHYGSNYVDYFDYWGQGTLVTVSS
VL: EIVLTQSPATLSLSPGERATLSCRASSSLSFMHWYQQKPGQPPKLLIYATSNLASGVPSRFSGSGSGTDFTFTISSLQPEDIATYYCHQWSSNPLTFGQGTKVEIKR
notes: Full-length IgG, unpurified HEK-293 supernatant; also called LC & HC combination 6
binding result (human CD20 [7]): binds

B8: anti-CD20 HuFR variant 5 (light chain BD22087, heavy chain BD20335) (antibody, human IgG1, kappa, V domains shown)
VH: QVQLVQSGAEVKKPGASVKVSCKASGYTFTSYNMHWVRQAPGKGLEWMGAIYPGNGDTSYNQKFKGRFTISRDNAKNSLYLQMNSLRAEDTAVYYCARSHYGSNYVDYFDYWGQGTLVTVSS
VL: EIVLTQSPGTLSLSPGERATLSCRASSSLSFMHWYQQKPGKAPKLLIYATSNLASGVPSRFSGSGSGTEFTLTISSLQPDDFATYYCHQWSSNPLTFGQGTKVEIKR
notes: Full-length IgG, unpurified HEK-293 supernatant; also called LC & HC combination 5
binding result (human CD20 [8]): binds
